Data reported in paper PMC9277888, “The testis-specific E3 ubiquitin ligase RNF133 is required for fecundity in mice” (BMC Biology, 2022).
Where two headings read alike, the source gives them in different places. Blank lines part the entries; values can stand above or below the molecule they belong to.

What was measured:
human HA-UBE2J1 = molecular target: T1, human HA-UBE2J1 (human, UniProt Q9Y385 1-318); experiment: co-IP; HEK293 cells co-transfected with FLAG-tagged E3 and HA-tagged E2; lysed by sonication in Pierce IP buffer (25 mM Tris-HCl pH 7.4, 150 mM NaCl, 1 mM EDTA, 1% NP-40, 5% glycerol); anti-HA magnetic beads, 4 C, 1 h; washed with IP buffer with 2 mM DTT; immunoblot with anti-FLAG; band intensities by ImageJ (IP lane to input lane)
T1 construct: E2 ubiquitin-conjugating enzyme UBE2J1, human, full-length open reading frame; also called pCAG-humanUBE2J1; source: HEK293 cells, transfected (pCAG1.1, Lipofectamine 3000), in lysate; not shown: HA, N-terminal, kept
T1 sequence (looked up): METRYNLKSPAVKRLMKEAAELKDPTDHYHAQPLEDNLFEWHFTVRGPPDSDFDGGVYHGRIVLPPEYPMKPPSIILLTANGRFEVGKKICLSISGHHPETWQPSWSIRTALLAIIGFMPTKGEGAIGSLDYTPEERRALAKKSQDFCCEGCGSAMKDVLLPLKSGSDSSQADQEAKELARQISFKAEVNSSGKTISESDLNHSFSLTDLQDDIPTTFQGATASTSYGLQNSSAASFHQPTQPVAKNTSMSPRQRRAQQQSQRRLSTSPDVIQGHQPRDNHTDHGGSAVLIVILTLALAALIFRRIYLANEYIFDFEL

mouse HA-UBE2J1 = molecular target: T2, mouse HA-UBE2J1 (mouse, UniProt Q9JJZ4 1-318); experiment: as above; details: partners not purified
T2 construct: E2 ubiquitin-conjugating enzyme UBE2J1, mouse, full-length open reading frame; also called pCAG-mouseUbe2J1; source: HEK293 cells, transfected (pCAG1.1, Lipofectamine 3000), in lysate; not shown: HA, N-terminal, kept
T2 sequence (looked up): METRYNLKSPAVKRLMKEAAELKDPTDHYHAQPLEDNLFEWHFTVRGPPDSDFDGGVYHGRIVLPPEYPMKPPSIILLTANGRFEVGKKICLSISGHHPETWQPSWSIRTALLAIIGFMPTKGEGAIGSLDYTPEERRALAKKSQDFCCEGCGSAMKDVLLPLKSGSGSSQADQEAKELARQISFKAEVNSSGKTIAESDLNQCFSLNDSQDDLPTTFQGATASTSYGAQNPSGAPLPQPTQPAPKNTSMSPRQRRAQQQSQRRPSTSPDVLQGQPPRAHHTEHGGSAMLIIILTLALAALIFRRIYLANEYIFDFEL

IP:input ratio (band intensity) (human HA-UBE2J1): 0.24
Molecule: human RNF133-mutant-FLAG (RING finger domain deleted) (from UniProt Q8WVZ7 1-376) (enzyme)

IP:input ratio (band intensity) (mouse HA-UBE2J1): 3.95
B1: mouse RNF133-FLAG (RING finger protein 133) (enzyme, UniProt Q14B02 1-382, looked up)
chain: MNPLQTSTWQNQAPSFWLLRFSFIWLVSQKCCTASAVWTAYMNISFHVGNRMLSELGETGVFGRSSILKRVAGVVVPPEGKIQNACDPNTTFILPRNKEPWIALIERGGCAFTQKIKVASEHGARGVIIYNFPGTGNQVFPMSHQAFEDIVVVMIGNIKGMEILHLIRKGVHVTVMVEVGRKHVIWLNHYFVSFMIVTTATLAYFTFYHIRRLWVARIENRRWKRLTRELKKAFGQLQVRVLKEGDEEVNPNADSCVICFEAYKPNEIVRILTCKHFFHKNCIDPWILAHGTCPMCKCDILKALGIQMDIEDGTDSLQVLMSNELPGTLSPVEEETNYELPPARTSSKVTHVQEHPTSSANAGSQPPEAEETSHPSHGQQVL
notes: also called mouse RNF133-WT; pCAG-mouseRnf133; source: HEK293 cells, transfected (pCAG1.1, Lipofectamine 3000), in lysate; not shown: FLAG, C-terminal, kept

IP:input ratio (band intensity) (human HA-UBE2J1; partners not purified): 1.74
B2: human RNF133-FLAG (RING finger protein 133) (enzyme, UniProt Q8WVZ7 1-376, looked up)
chain: MHLLKVGTWRNNTASSWLMKFSVLWLVSQNCCRASVVWMAYMNISFHVGNHVLSELGETGVFGRSSTLKRVAGVIVPPEGKIQNACNPNTIFSRSKYSETWLALIERGGCTFTQKIKVATEKGASGVIIYNVPGTGNQVFPMFHQAFEDVVVVMIGNLKGTEIFHLIKKGVLITAVVEVGRKHIIWMNHYLVSFVIVTTATLAYFIFYHIHRLCLARIQNRRWQRLTTDLQNTFGQLQLRVVKEGDEEINPNGDSCVICFERYKPNDIVRILTCKHFFHKNCIDPWILPHGTCPICKCDILKVLGIQVVVENGTEPLQVLMSNELPETLSPSEEETNNEVSPAGTSDKVIHVEENPTSQNNDIQPHSVVEDVHPSP
notes: also called human RNF133-WT; RNF133 wild-type; source: HEK293 cells, transfected (pCAG1.1, Lipofectamine 3000), in lysate; not shown: FLAG, C-terminal, kept
